Ends that are not written are not given here. Peptide text beside a SMILES is read from it. * marks the point of attachment. 5TAMRA = CN(C)c1ccc2c(c1)Oc1cc(N(C)C)ccc1C21OC(=O)c2cc(C(=O)*)ccc21
What was measured:
[1] = target: T1, Recombinant mouse TfR protein (mTfR) (Mus musculus, UniProt Q62351); experiment: SPR binding to immobilized mouse TfR (Biacore 3000, CM5 chip); conditions: unlabeled peptide, 0.25-4 μM, 25°C, pH 7.4, Langmuir 1:1 global fit
T1 construct: His-tag; purchased SinoBiological, Inc., Beijing, PRC
Experimental: (§1) The binding affinity analysis of the MTf and GYR peptides was performed using the Biacore 3000 system (Cytiva, UK) equipped with a CM5 sensor chip. The sensor chip was initially activated by injection of 0.2 M 1-ethyl-3-(3-dimethylaminopropyl) carbodiimide hydrochloride and 0.05 M N-hydroxysuccinimide in water. Recombinant human and mouse TfR protein (SinoBiological, Inc., Beijing, PRC) was purchased with a His-tag and immobilized on the sensor chip at 58 fmol/mm^2. LRP-1 was purified from human placenta according to a previously described protocol and immobilized to densities of 0.025 fmol/mm^2. The remaining carboxylate groups were blocked with 1 M ethanolamine. The MTf and GYR peptides were injected for binding to the immobilized TfR or LRP-1 protein at 5 μL/min at 25°C in 10 mM HEPES, 150 mM NaCl, 1.5 mM CaCl2, 1 mM EGTA, and 0.005% Tween 20 (pH 7.4) at five different concentrations (0.25 μM, 0.5 μM, 1 μM, 2 μM and 4 μM). The reference flow channel (FC1) was activated and blocked but without immobilized TfR or LRP-1. The dissociation constant (KD) values were calculated using the BIAevaluation 4.1 software (Cytiva, UK) using the predefined Langmuir 1:1 interaction model and fitted using a drifting baseline with global fitting to the curves of the considered concentration range.

[2] = system: bEnd.3 cells; experiment: Translocation study based on fluorescence intensity measurement (Transwell, non-contact co-culture with rat astrocytes); format: in vitro ADME, mouse; conditions: for Pe ("real" endothelial permeability): 1/Pe = 1/Papp,bEnd.3+filter − 1/Papp,filter, fluorescence; for Papp,F (apparent permeability through filter): cell-free collagen-coated polyester Transwell filter, 0.4 μm pores, fluorescence Ex 535/Em 585 nm
Experimental: (§2) For the translocation studies, an in vitro contact and non-contact co-culture model was used. Forty thousand bEnd.3 cells were seeded on the upper side of the collagen-coated Transwell insert and maintained in cDMEM for 24 hours (contact co-culture) or immediately transferred into a 12-well plate in which rat astrocytes were grown for at least three weeks (non-contact co-culture). In the case of contact co-culture, 24 hours after plating the bEnd.3 approx. 150,000 rat astrocytes were seeded on the bottom side of the flipped Transwell inserts, which was coated with 5 μg/ml poly-L-lysine (P1524, Sigma-Aldrich), and incubated for 2 hours at 37°C. The inserts were then flipped back to the original side and placed into a 12-well plate with rat astrocytes. The cells were cultured in cDMEM at 37°C with 5% CO2/95% air and saturated humidity, and the experiments were performed 4.5–5 days post-seeding of bEnd.3 cells. The medium was switched to phenol red-free cDMEM the day before the experiment.
(§3) These experiments were performed using the bEnd.3 cells that were cultured with rat astrocytes in a non-contact co-culture model and with cell-free filters as negative controls. On the day of the experiment, the inserts were transferred to a new astrocyte-free 12-well plate, and the medium was changed on both the apical and basolateral sides. The apical side of the membrane was exposed to 10 μM MTfp or GYR for 2 hours while the plates were gently shaken to overcome unstirred water-layer effects. After the 2 hours exposure time, 150 μL sample was taken from both apical and basolateral compartments, and the fluorescence intensity was read by a CLARIOstar® Plus microplate reader (BMG Labtech) (λExc = 535 nm, λEm = 585 nm, Bandwidth = 20 and 30 nm, respectively). The translocation of the peptides is presented as permeability coefficient (a concentration independent transport parameter) and was determine by using the clearance principle.
(§4) The following equations [27] were used to calculate the permeability coefficient: Papp[cm/s]=B/T⋅vb/A⋅t⋅60 (1) Where Papp is the apparent permeability, B is the relative fluorescence unit (RFU) at time t, T is the top chamber RFU at time 0 (constant), Vb is the volume of the bottom channel [ml], A is the cross-section area of the membrane [cm^2], and t is the time [min].
(§5) The translocation experiments were performed three times in technical triplicates, and the data are represented as mean (SD).

[3] = target: T2, LRP-1 purified from human placenta (Homo sapiens, UniProt Q07954); experiment: SPR binding to immobilized LRP-1 (Biacore 3000, CM5 chip); conditions: unlabeled peptide, 0.25-4 μM, 5 μL/min, 25°C, HEPES buffer pH 7.4, Langmuir 1:1 global fit
T2 construct: LRP-1 was purified from human placenta according to a previously described protocol; from tissue; host or cells: human placenta
Experimental: as §1

[4] = Translocation study based on fluorescence intensity measurement (Transwell, non-contact co-culture with rat astrocytes); format: in vitro ADME, mouse; conditions: mouse; bEnd.3 non-contact co-culture with rat astrocytes, polyester Transwell 0.4 μm; 10 μM apical, 2 h, shaken, apical to basolateral; fluorescence (RFU values) Ex 535/Em 585 nm; mean (SD) of three independent experiments with triplicates; read-out: Papp, bEnd.3+F (apparent permeability through bEnd.3 grown on filter)
Experimental: as §2, §3, §4, §5

[5] = 10 μM apical, 2 h, mean (SD) of three independent experiments with triplicates
[6] = alternative calculation, 10 μM apical, 120 min
[7] = 10 μM apical, 2 h, shaken, apical to basolateral, mean (SD) of three independent experiments with triplicates

T2 sequence (Q07954 20-4544): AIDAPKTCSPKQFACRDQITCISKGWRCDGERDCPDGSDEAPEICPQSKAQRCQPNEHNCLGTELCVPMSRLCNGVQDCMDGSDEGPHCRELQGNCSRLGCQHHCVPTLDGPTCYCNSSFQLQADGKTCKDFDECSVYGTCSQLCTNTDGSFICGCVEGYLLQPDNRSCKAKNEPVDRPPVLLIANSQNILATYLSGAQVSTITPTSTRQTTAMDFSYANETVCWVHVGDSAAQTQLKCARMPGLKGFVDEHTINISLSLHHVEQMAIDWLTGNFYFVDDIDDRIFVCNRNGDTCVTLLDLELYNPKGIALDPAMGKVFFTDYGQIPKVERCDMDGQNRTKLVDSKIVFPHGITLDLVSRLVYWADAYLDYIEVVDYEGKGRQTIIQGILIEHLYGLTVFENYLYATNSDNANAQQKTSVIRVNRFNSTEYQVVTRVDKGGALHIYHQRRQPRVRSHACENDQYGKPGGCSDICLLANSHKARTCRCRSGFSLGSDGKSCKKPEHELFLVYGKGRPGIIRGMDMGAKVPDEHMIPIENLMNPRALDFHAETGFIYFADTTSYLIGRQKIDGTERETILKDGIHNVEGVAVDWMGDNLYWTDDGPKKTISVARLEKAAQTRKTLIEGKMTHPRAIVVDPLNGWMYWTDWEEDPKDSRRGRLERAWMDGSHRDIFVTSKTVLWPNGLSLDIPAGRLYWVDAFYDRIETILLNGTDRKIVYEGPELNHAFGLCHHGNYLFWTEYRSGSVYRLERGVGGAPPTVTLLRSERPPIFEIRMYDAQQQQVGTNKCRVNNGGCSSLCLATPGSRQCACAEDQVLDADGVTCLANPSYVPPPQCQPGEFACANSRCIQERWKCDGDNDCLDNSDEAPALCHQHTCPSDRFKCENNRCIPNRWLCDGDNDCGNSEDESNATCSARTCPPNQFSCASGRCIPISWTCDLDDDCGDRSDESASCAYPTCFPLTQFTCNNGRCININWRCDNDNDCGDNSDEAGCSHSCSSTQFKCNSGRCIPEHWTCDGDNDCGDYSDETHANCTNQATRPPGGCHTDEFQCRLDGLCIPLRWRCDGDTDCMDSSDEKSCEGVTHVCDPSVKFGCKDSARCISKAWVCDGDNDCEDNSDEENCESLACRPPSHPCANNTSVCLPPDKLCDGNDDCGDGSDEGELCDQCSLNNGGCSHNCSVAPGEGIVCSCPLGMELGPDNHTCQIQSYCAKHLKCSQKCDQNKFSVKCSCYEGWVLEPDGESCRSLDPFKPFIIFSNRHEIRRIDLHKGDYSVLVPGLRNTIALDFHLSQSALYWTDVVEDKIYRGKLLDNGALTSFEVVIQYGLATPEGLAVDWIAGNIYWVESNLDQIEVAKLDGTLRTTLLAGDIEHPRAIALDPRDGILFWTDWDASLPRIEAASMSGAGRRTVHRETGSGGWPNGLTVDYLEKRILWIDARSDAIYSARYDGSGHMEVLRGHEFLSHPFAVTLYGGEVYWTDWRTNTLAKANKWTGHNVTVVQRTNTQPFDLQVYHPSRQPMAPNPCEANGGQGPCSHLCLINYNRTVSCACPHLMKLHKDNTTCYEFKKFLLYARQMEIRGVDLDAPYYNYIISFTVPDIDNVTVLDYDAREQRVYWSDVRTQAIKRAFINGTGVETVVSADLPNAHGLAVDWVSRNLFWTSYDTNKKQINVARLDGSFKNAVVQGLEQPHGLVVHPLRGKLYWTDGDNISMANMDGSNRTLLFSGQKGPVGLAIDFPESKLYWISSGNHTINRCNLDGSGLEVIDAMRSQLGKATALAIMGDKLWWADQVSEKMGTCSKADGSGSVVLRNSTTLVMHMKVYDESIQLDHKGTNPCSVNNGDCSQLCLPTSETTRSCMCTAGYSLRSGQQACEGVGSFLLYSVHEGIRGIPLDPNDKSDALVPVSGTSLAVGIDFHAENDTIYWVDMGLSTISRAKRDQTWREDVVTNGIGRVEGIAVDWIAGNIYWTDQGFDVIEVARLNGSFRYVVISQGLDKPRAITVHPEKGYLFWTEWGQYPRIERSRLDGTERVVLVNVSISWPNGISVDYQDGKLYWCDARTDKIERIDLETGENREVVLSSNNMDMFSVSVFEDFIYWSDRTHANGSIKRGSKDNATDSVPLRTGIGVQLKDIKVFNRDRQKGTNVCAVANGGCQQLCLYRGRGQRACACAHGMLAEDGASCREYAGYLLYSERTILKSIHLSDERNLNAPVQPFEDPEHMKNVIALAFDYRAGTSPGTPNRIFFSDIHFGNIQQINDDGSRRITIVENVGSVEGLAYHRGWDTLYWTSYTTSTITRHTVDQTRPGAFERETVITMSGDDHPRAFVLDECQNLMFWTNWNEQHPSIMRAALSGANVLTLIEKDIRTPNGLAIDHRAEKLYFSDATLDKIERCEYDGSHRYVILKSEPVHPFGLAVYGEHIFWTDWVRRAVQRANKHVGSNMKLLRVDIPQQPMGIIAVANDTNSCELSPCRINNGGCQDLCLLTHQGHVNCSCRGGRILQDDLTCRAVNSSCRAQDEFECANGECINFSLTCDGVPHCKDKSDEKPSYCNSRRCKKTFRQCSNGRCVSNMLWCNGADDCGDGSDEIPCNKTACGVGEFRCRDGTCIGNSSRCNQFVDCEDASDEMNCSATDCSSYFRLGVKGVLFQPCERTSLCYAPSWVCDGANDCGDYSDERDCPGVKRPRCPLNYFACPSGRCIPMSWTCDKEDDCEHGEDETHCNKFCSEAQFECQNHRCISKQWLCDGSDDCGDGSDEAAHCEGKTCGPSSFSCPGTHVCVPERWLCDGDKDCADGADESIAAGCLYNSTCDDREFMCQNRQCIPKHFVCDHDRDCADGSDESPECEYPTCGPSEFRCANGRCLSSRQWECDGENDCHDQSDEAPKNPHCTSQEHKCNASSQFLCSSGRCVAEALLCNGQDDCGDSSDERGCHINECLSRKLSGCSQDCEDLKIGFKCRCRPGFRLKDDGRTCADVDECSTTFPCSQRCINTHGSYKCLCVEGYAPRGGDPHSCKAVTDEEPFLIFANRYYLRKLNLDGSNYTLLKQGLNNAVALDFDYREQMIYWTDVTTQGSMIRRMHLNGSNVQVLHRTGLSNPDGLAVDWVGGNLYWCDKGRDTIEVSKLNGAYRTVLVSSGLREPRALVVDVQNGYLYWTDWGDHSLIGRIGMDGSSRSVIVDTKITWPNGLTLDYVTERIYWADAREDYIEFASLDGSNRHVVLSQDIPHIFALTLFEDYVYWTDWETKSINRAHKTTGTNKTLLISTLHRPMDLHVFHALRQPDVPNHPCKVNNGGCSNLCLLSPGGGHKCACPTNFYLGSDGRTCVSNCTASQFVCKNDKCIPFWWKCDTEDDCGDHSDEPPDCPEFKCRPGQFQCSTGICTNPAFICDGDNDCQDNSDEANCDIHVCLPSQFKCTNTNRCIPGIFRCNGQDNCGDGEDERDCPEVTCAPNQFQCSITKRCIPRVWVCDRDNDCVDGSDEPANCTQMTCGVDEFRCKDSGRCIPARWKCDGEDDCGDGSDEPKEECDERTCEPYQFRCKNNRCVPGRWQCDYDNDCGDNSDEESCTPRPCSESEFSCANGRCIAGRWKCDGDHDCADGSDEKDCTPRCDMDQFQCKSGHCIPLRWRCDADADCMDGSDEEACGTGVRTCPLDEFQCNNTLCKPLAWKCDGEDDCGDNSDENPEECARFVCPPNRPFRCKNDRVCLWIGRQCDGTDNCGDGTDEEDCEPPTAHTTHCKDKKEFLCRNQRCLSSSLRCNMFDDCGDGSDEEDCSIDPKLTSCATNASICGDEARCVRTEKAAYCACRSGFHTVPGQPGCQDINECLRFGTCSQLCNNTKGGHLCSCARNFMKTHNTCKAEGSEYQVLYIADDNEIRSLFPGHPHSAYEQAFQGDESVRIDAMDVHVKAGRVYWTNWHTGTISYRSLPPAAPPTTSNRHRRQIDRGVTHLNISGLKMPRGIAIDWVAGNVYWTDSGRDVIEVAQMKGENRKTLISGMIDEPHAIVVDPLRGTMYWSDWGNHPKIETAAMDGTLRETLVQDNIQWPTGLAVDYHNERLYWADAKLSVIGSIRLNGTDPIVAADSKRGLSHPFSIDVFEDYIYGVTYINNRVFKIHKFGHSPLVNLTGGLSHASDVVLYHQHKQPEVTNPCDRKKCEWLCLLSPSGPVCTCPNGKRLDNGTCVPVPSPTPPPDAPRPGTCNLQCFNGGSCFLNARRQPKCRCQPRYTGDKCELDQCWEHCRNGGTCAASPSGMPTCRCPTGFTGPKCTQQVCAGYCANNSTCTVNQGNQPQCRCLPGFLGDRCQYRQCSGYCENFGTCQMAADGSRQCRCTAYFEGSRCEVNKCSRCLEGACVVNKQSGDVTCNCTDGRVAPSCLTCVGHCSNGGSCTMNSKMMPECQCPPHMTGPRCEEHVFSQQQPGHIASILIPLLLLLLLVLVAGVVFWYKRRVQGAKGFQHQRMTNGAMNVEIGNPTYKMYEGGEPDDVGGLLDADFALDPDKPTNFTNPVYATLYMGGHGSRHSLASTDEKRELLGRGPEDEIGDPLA

Compound | Kd [3] | Pe ("real" endothelial permeability) [2, 5] | Papp,F (apparent permeability through filter) [2, 7] | further results
GYRPVHNIRGHWAPGK-NH2 [GYR] | 0.1 µM |  |  | Kd [1]: 1000 µM; Remaining peptide most likely trapped inside the filter membrane or in the endothelial cell layer ([2]; 100% minus collected): 1.7%
CC[C@H](C)[C@H](NC(=O)[C@H](CC(N)=O)NC(=O)[C@H](Cc1c[nH]cn1)NC(=O)[C@@H](NC(=O)[C@@H]1CCCN1C(=O)[C@H](CCCNC(=N)N)NC(=O)[C@H](Cc1ccc(O)cc1)NC(=O)CN)C(C)C)C(=O)N[C@@H](CCCNC(=N)N)C(=O)NCC(=O)N[C@@H](Cc1c[nH]cn1)C(=O)N[C@@H](Cc1c[nH]c2ccccc12)C(=O)N[C@@H](C)C(=O)N1CCC[C@H]1C(=O)NCC(=O)N[C@@H](CCCCNC(=O)c1ccc2c(c1)C(=O)OC21c2ccc(N(C)C)cc2Oc2cc(N(C)C)ccc21)C(N)=O [GYR-TAMRA] (H-GYRPVHNIRGHWAPGK(5TAMRA)-NH2) |  | 15.17 (1.83) x 10^−6 cm/s | 12.82 (3.11) x 10^−6 cm/s | Papp (bEnd.3 + filter), calculated concentrations based on a standard curve [2, 6]: 6.71 ×10⁻⁶ cm/s; Papp (bEnd.3 + filter), calculated final basal concentration and the 10 µM initial apical concentration [2, 6]: 6.31 ×10⁻⁶ cm/s; Papp, bEnd.3+F (apparent permeability through bEnd.3 grown on filter) ([2]; bEnd.3 non-contact co-culture with rat astrocytes, polyester Transwell 0.4 μm, 10 μM apical, 2 h, shaken, apical to basolateral, fluorescence (RFU values) Ex 535/Em 585 nm, mean (SD) of three independent experiments with triplicates): 6.64 (1.16) x 10^−6 cm/s
FRCLVENRGDVPFVTRIR-NH2 [MTfp] | 0.00057 µM |  |  | 
CC[C@H](C)[C@H](NC(=O)[C@H](CCCNC(=N)N)NC(=O)[C@@H](NC(=O)[C@@H](NC(=O)[C@H](Cc1ccccc1)NC(=O)[C@@H]1CCCN1C(=O)[C@@H](NC(=O)[C@H](CC(=O)O)NC(=O)CNC(=O)[C@H](CCCNC(=N)N)NC(=O)[C@H](CC(N)=O)NC(=O)[C@H](CCC(=O)O)NC(=O)[C@@H](NC(=O)[C@H](CC(C)C)NC(=O)[C@H](CS)NC(=O)[C@H](CCCNC(=N)N)NC(=O)[C@H](Cc1ccccc1)NC(=O)c1ccc2c(c1)C(=O)OC21c2ccc(N(C)C)cc2Oc2cc(N(C)C)ccc21)C(C)C)C(C)C)C(C)C)[C@@H](C)O)C(=O)N[C@@H](CCCNC(=N)N)C(N)=O [MTfp-TAMRA] (5TAMRA-FRCLVENRGDVPFVTRIR-NH2) |  | 4.57 (0.64) x 10^−6 cm/s | 5.86 (1.27) x 10^−6 cm/s | Papp A→B at 2 h, 10 µM [4]: 2.55 ×10⁻⁶ cm/s

— article PMC8018780, “Two peptides targeting endothelial receptors are internalized into murine brain endothelial cells” (PLoS ONE, 2021)
